US20210309696A1 (ENLITISA SHANGHAI PHARMACEUTICAL, published 2021)
Non-standard residues stand in square brackets, D forms with d. No end group written: not given here. Hyp = O=C(O)[C@@H]1C[C@@H](O)CN1

T1: CysLTR1 (cysteinyl leukotriene receptor CysLT1), expressed in the CYSLTR1/HEK293 cell line (UniProt Q9Y271 1-337, limits assumed)
T1 sequence (looked up): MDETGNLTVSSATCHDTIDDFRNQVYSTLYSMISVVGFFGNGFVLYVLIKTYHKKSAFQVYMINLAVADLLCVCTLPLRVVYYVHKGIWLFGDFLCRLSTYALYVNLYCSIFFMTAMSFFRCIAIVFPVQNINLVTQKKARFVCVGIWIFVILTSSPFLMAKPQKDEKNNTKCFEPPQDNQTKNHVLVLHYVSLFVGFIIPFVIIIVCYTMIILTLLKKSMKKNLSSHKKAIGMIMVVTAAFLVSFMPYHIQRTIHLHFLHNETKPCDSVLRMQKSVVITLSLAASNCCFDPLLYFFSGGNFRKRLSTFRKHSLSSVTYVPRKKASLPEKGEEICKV


Columns and labels:
Assay in all cases: cell-based or functional assay
[1] = target: CysLTR1 (cysteinyl leukotriene receptor CysLT1), expressed in the CYSLTR1/HEK293 cell line (UniProt Q9Y271)
[2] = target: T1, CysLTR1 (cysteinyl leukotriene receptor …)
[3] = target: T1, CysLTR1 (cysteinyl leukotriene receptor …); remark: listed apart in the source
[4] = target: T1, CysLTR1 (cysteinyl leukotriene receptor …); remark: listed apart in the source

| IC50 (nM), in vitro CysLTR1 FLIPR antagonist test (Fluo-4 calcium assay, CYSLTR1/HEK293 cells) [1] | affinity to CysLTR1 relative to Compound A, derived from the FLIPR antagonist IC50s [2] | IC50 (nM), in vitro CysLTR1 FLIPR antagonist test (Fluo-4 calcium assay, CYSLTR1/HEK293 cells) [3] | IC50 (nM), in vitro CysLTR1 FLIPR antagonist test (Fluo-4 calcium assay, CYSLTR1/HEK293 cells), repeat [4] | Molecule |
| --- | --- | --- | --- | --- |
| 99.5 nM |  |  |  | Montelukast-Ala-Lys-Pro-Ser-Tyr-Hyp-Thr-Tyr-Hyp-Lys (montelukast covalently bonded at the N-terminus) (peptide) |
|  | 5 fold against Compound A | 90.5 nM | 140 nM | montelukast-AKPSY[Hyp][Hyp]TYK |
|  |  | 475 nM |  | {montelukast styrene}-AKPSY[Hyp][Hyp]TYK |
